The target in this test is VAPB (endogenous, COS-7 cells) (African green monkey (endogenous in COS-7)). The experiment in a line: proximity ligation.

Consider “ACBD5 (endogenous, COS-7 cells) (natural protein)”, for which the PLA signals per cell (PLA signals per cell) is 5.6, the PLA signals per cell (single plane) (PLA signals per cell) came to 10.4 and the PLA signals per cell (z-stack) (PLA signals per cell) came out at 11.3.

For the origin of these results see publication PMC6565432.
